In patent US20020081603:

Test system: acetylated histone H3
Details: ChIP with qPCR

Substance | binding signal (reference (10-fold lower than treated)) (5mC in CpG island, untreated HCT15 cells) | binding signal (fold enrichment vs untreated) (HCT15 cells treated with 2 uM 5-azacytidine)
p16 5'-UTR CpG island region, methylated (untreated HCT15) | 1 | –
p16 5'-UTR CpG island region, unmethylated (5-azacytidine-treated HCT15) | – | 10
